Measurements published in US12083109B2, “Neurokinin antagonists and uses thereof” (California Institute of Technology, priority 2017, dated 2024).

Test system: Tac2
Experiment: Resident intruder assay, Tac2 shRNA knockdown
Format: in vivo, mouse
Conditions: SIS mice
From the text: Small hairpin RNA (shRNA) for the mouse Tac2 gene (NM_009312.2) were designed using the online designing tool siDirect 2.0 (http://sidirect2.mai.jp/) (Naito et al., 2009; incorporated by reference in its entirety).
8-16 week old mice were anesthetized with isoflurane and mounted in a stereotaxic apparatus (Kopf Instruments). Anesthesia was maintained throughout surgery at 1-1.5% isoflurane. The skull was exposed and small burr holes produced dorsal to each injection site using a stereotaxic mounted drill. […] Directly following surgery, mice were given a subcutaneous injection of ketoprofen (2 mg/kg) and supplied with drinking water containing 400 mg/L sulphamethoxazole and 200 mg/L ibuprofen and monitored for 7 days. […]
Testing for aggression using the resident intruder assay (Blanchard et al., 2003; incorporated by reference in its entirety) was performed as previously described (Hong et al., 2015; Hong et al., 2014; Lee et al., 2014; incorporated by reference in their entirety). […] Fighting bouts were scored on a frame-by-frame basis and were defined as a frame during which the resident male was engaged in an episode of biting or intense aggressive behavior immediately surrounding a biting episode. Annotation files were then batch analyzed for behavior, including number of fighting bouts, using in-house customized programs in MATLAB (A. Kennedy, Caltech). […]

B1: shRNA-1: small hairpin RNA for mouse Tac2 gene (SEQ ID NO: 9, 10), expressed from AAV5-H1-shRNA-CMV-zsGreen (nucleic acid)
chain 1: CCGACGTGGTTGAAGAGAACACCGCTTCCTGTCACGGTGTTCTCTTCAACCACGTCTTTTTT
chain 2: AAAAAAGACGTGGTTGAAGAGAACACCGTGACAGGAAGCGGTGTTCTCTTCAACCACGTCGG
In the case of B1, the SIS-induced aggression (AAV shRNA in DMH) is reported as “blocked” and the SIS-induced aggression (AAV shRNA in dBNSTa) is reported as “had no effect”.
